In the assay the target is N-methyl-D-aspartate (NMDA) receptor (rat). Nature of the assay: cell-based or functional assay.

Ends that are not written are not given here.

On to TPPT-NH2 [GLYX-13 (L-threonyl-L-prolyl-L-prolyl-L-threonine amide)], for which the “intrinsic activity relative to D-serine, pharmacologically isolated NMDA receptor current in the hippocampal slice assay” value turned out to be 23%.

The record behind these values is patent US10167314 (NORTHWESTERN UNIVERSITY, dated 2019).
